According to patent publication US20160340659A1, “ACTIN BINDING PEPTIDES AND COMPOSITIONS COMPRISING SAME FOR INHIBITING ANGIOGENESIS AND TREATING MEDICAL CONDITIONS ASSOCIATED WITH SAME” (YISSUM RESEARCH AND DEVELOPMENT COMPANY OF THE HEBREW …, priority 2014, published 2016):
Entries after “also recorded” stand apart in the source; their conditions may differ.

B1: SEQ ID NO: 84: truncated RNASET2 polypeptide representing amino acids 49-232 of full length, native RNASET2 (protein)
chain: EGCNRSWPFNLEEIKDLLPEMRAYWPDVIHSFPNRSRFWKHEWEKHGTCAAQVDALNSQKKYFGRSLELYRELDLNSVLLKLGIKPSINYYQVADFKDALARVYGVIPKIQCLPPSQDEEVQTIGQIELCLTKQDQQLQNCTEPGEQPSPKQEVWLANGAAESRGLRVCEDGPVFYPPPKKTKH
B2: SEQ ID NO: 129: truncated version of hRNASET2 (trT2-49) missing amino acids E120-V141, expressed in E. coli (protein)
chain: EGCNRSWPFNLEEIKDLLPEMRAYWPDVIHSFPNRSRFWKHEWEKHGTCAAQVDALNSQKKYFGRSLELYRADFKDALARVYGVIPKIQCLPPSQDEEVQTIGQIELCLTKQDQQLQNCTEPGEQPSPKQEVWLANGAAESRGLRVCEDGPVFYPPPKKTKH

Tests used:
[1] = target: T1, actin (Oryctolagus cuniculus, UniProt P68135); assay: Actin binding solid phase assay; details: immobilized actin; 0-500 ng/100 μl well
Experimental: 96-well plates (MaxiSorp® flat-bottom 96-well plate, Fisher Scientific Inc., Fair Lawn, N.J.) were coated with 500 ng actin in 100 μl carbonate-bicarbonate buffer (pH 9.5) for 1 h at 37° C. The plate was washed once with TBS and then blocked with 3% BSA in 200 μl TBS buffer at 37° C., for 1 h. Wells were then washed once with 250 μl TBS. trT2-49, trT2-49m or each of the 29 peptides were added at 1:2 dilutions in 100 μl TBS, starting from 500 ng/well, incubated for 1 h at 37° C. and then washed three times with TBS containing 0.1% Tween-20 (TBST). Each well was then treated with 100 μl rabbit anti-trT2-49 diluted 1:500 in TBS and incubated for 1 h at 37° C. The wells were washed three times with TBST and then incubated with 100 μl goat anti-rabbit IgG-HRP (Jackson ImmunoResearch, West Grove, Pa.) diluted 1:10,000 in TBS, for 1 h at 37° C. Wells were then washed twice with TBST, and once with TBS before 100 μl substrate (1-step Ultra TMB-ELISA, Pierce, Fisher Scientific Inc.) were added. Absorbance at 655 nm was measured 10 min thereafter using a Power Wave 200 Microplate Scanning Spectrophotometer (Bio-Tek Instrument, Winooski, Vt.). Affinity was evaluated by double reciprocal plotting.

[2] = tested on: chick Chorio-Allantoic Membrane (CAM); assay: Ex ovo CAM angiogenesis assay; type: in vivo, chicken; details: 3 μg on paper disk daily for four days from day 8; compared to PBS control
Experimental: In this assay, in-vivo angiogenesis is assessed on live chick embryos grown in petri dishes. Fertilized eggs are cracked into a petri dish after a few (e.g. 3) days incubation at appropriate temperature (e.g. 37° C.) and humidity. In the following days, the embryos developed a vascular network, which can then easily be exposed to any treatment or combination of treatments, for example, via delivery onto absorbent disks placed on/about the developing vascular regions. Angiogenesis is scored by periodically (e.g. 1×/day, 2×/day, 1×/2 days, 1×/4 days, etc) counting the number of blood vessels around the disk.
Fertilized chicken eggs were incubated horizontally at 37° C. and humidity of 60-62% and cracked into Petri dishes at embryonic day 4. Incubation was continued under the same conditions. […] Treatment was given every day for four days, then, the number of blood vessels around the treated disks was counted.

[3] = target: T2, G-Actin from rabbit muscle (Oryctolagus cuniculus, UniProt P68135); assay: ELISA actin binding assay (solid-phase, immobilized actin); details: immobilized G-actin 500 ng/well
T2 construct: G-Actin from rabbit muscle; purchased Sigma-Aldrich, St Louis, Mo; host or cells: rabbit muscle (tissue-derived)
Experimental: Peptides corresponding to a variety of amino acid sequences in the region of human RNASET2 comprising helix 5 and helix 6 were synthesized and assayed for actin binding in an ELISA actin binding assay.
Solid-phase ELISA for RNASET2 peptide binding to immobilized actin was performed as modified from Mejean 1987 (Biochem. J. 244: 571-577) and Mejean 1992 (Eur. J Biochem. 209: 555-562). All steps were conducted at 37° C. Immuno-96 Microwell™ solid plates (Thermo Fisher Scientific, MA) coated with 500 ng/well of G-Actin from rabbit muscle (Sigma-Aldrich, St Louis, Mo.) in 100 ul of 0.05 M carbonate buffer, pH 9.5 (Sigma-Aldrich, Mo), incubated for 1 h and washed with 250 ul/well Tris Buffered Saline (TBS) (Sigma-Aldrich). The wells were blocked with 3% bovine serum albumin (BSA, Sigma-Aldrich) in 200 ul/well TBS for another 1 hour and washed with 250 ul/well TBS. […] After an additional wash with 250 ul/well TBS, 1-Step Ultra TMB-ELISA (TMB-3,3′,5,5′ Tetramethylbenzidine) (Thermo-Scientific) was added (100 ul/well) and after 15-25 min of incubation, the reaction was read at A650 using Infinite F50-TECAN ELISA READER (TECAN, Austria). […]

[4] = target: T1, actin; assay: Surface plasmon resonance (BIAcore) of actin binding; details: actin on CM5 chip, 25° C.
Experimental: SPR was performed on a BIAcore 3000 instrument (BIAcore, Uppsala, Sweden). Actin was diluted in 100 mM CH3COONa pH 4.6 to a final concentration of 20 μg/ml (200 μl total) resulting in ˜1 ng immobilized actin on a CM5 BIAcore sensor chip (GE Healthcare Bio-Sciences AB) using the standard BIAcore amine coupling chemistry protocol. The CM5 chip allows four separate flow cells to be operated in the BIAcore 3000 instrument used in these experiments. Coupling is achieved by activating the surface of the sensor chips with equal volumes of 50 mM N-hydroxysuccimide (NHS)/200 mM Nethyl-N-(3-[…])-carboiimide (EDC) (BIAcore, AB, Uppsala, Sweden) to form activated carboxyl groups. An actin solution (15 μg/ml) was run over the chip for 5 min at a rate of 10 μl/min, allowing the amine groups on the protein to react with the activated esters. In the final stage of immobilization, the surface was blocked by 1M ethanol amine, pH 8.0. […] The association phase for protein or peptides binding to actin was followed for 4 min, and dissociation phases were monitored for 3 min. […] The response was monitored as a function of time (sensorgram) at 25° C. […]

[5] = tested on: HUVEC; assay: HUVEC tube formation assay on Matrigel; type: cell-based, human; details: peptides at 2 μM, compared to Control
Experimental: FIGS. 6A-6D illustrate in-vitro inhibition of angiogenesis in the HUVEC model by T2 peptides. HUVEC cells plated on Matrigel™ were exposed to 2 μM of T2 peptides A103-Q159 (SEQ ID NO: 60), K108-K133 (SEQ ID NO: 57) or K108-L123 (SEQ ID NO: 67), in addition to 1 μg/ml of angiogenin or VEGF as the angiogenic agent, as indicated. Control wells received PBS. FIG. 6B-Results were assessed by imaging software, and quantified, and expressed relative to tube formation with angiogenin or VEGF alone (100%) Column 1=angiogenin, column 2=angiogenin+SEQ ID NO: 60, column 3=angiogenin+SEQ ID NO: 57, column 4=angiogenin+SEQ ID NO: 60, Column 5=VEGF, column 6=VEGF+SEQ ID NO: 60, column 7=VEGF+SEQ ID NO: 57, column 8=VEGF+SEQ ID NO: 60. FIGS. 6C and 6D illustrate the inhibitory effect of truncated human T2 polypeptide trT2-49m (SEQ ID NO: 129) on angiogenin and VEGF induced HUVEC tube formation. […]
HUVEC (CC-2519)(fresh or commercially provided) are maintained in M199 rrrediurn supplemented with 20% FCS, 1% glutamine, 1% antibiotic-antimycotic solution, ECGF, and heparin, plated in a 96-well plate (14×10^3 cells/well) previously coated with growth factor-depleted Matrigel™ (BD Biosciences), in M199 medium containing 5% FCS and 0.005% ECGF. […] Plates are incubated (overnight), photographed and the extent of tube formation (angiogenesis) assessed.

Molecule	actin binding in solid-phase assay [1]	inhibition of angiogenesis (number of blood vessels around disk) [2]	actin binding on ELISA [3]	Ka × 10^3 [4]	inhibition of VEGF-induced tube formation ([5]; 1 μg/ml VEGF) [%]	inhibition of angiogenin-induced tube formation ([5]; 1 μg/ml angiogenin) [%]
B1	effective and concentration-dependent binding of actin	effective in inhibiting angiogenesis	effectively binds actin	1.71 ×10^3 1/Ms		
B2	bound actin in a concentration-dependent manner; also recorded: effective and concentration-dependent binding of actin			0.50 ×10^3 1/Ms	35	40
